The values that follow come from patent US20240390422A1 (QUELL THERAPEUTICS, published 2024).

The labels stand for the following.
T1: Biotinylated Human TREM2 Protein,His,Avitag (TR2-H82E7, ACRObiosystems) (human, UniProt Q9NZC2 19-174, biotinylated (Avitag))
T1 construct: Bought protein; also called huTREM2,Biotin,His,Avitag; Biotinylated human TREM2 protein with a streptavidin tag; not shown: His tag and Avitag
T1 sequence (looked up): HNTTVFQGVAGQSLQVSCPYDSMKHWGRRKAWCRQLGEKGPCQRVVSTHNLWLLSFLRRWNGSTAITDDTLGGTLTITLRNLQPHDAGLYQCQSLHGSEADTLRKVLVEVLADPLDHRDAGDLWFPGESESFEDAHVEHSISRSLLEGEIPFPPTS

B1: construct 3 (anti-TREM2 CAR comprising a TREM2 scFv) (other)
chain: EVQLVQSGAEVKKPGESLKISCKGSGYTFTSYWIGWVRQMPGKGLEWMGIIYPGDSDTRYSPSFQGQVTISVDKSSSTAYLQWSSLKASDTAIYYCTRQAIAVTGLGGFDPWGQGTLVTVSSGGGGSGGGGSGGGGSEIVLTQSPGTLSLSPGERATLSCRASQSVSSSYLAWYQQKPGQAPRLLIYGASSRATGIPDRFSGSGSGTDFTLTISRLEPEDFALYYCQQYDTSPFTFGPGTKVDIKLRVFSSVVPVLQKVNSTTTKPVLRTPSPVHPTGTSQPQRPEDCRPRGSVKGTGLDFACDIYIWAPLAGICVALLLSLIITLICYHRQLWTNSRRNRLLQSDYMNMTPRRPGLTRKPYQPYAPARDFAAYRPRAKFSRSAETAANLQDPNQLYNELNLGRREEYDVLEKKRARDPEMGGKQQRRRNPQEGVYNALQKDKMAEAYSEIGTKGERRRGKGHDGLYQGLSTATKDTYDALHMQTLAPR
notes: Chimeric antigen receptor with an anti-TREM2 scFv, expressed on the surface of Jurkat NFAT cells or murine Tregs after retroviral transduction; the construct also encodes GFP
B2: construct 10 (anti-TREM2 CAR comprising a TREM2 scFv) (other)
chain: EVQLLESGGGLVQPGGSLRLSCAASGFTFSNYYMAWVRQAPGKGLEWVSSLTNSGGSTYYADSVKGRFTISRDNSKNTLYLQMNSLRAEDTAVYYCTREWAGSGYFDYWGQGTLVTVSSGGGGSGGGGSGGGGSDIQMTQSPSSLSASVGDRVTMTCKASQNVGNNLAWYQQKPGKAPKLLLYYTSNRFTGVPSRFSGSGSGTDFTLTISSVQPEDFATYYCQRIYNSPWTFGQGTKLELKLRVFSSVVPVLQKVNSTTTKPVLRTPSPVHPTGTSQPQRPEDCRPRGSVKGTGLDFACDIYIWAPLAGICVALLLSLIITLICYHRQLWTNSRRNRLLQSDYMNMTPRRPGLTRKPYQPYAPARDFAAYRPRAKFSRSAETAANLQDPNQLYNELNLGRREEYDVLEKKRARDPEMGGKQQRRRNPQEGVYNALQKDKMAEAYSEIGTKGERRRGKGHDGLYQGLSTATKDTYDALHMQTLAPR
notes: as for B1
B3: construct 7 (anti-TREM2 CAR comprising a TREM2 scFv) (other)
chain: QVQLQQSGPGLVKPSQTLSLTCAISGDSVSSSSAAWNWIRQSPSRGLEWLGHIGYRSKWYNEYAVSVKSRITINPDTSKNQFSLQLNSVTPEDTAVYYCARGMYGSVPYKEGYYFDIWGQGTLVTVSSGGGGSGGGGSGGGGSDIQMTQSPSSLSASVGDRVTITCRASQGISSDLNWYQQKPGKAPKLLIYAASNLQSGVPSRFSGSGSGTDFTLTISSLQPEDFATYYCQQYTDESMTFGQGTKVEIKLRVFSSVVPVLQKVNSTTTKPVLRTPSPVHPTGTSQPQRPEDCRPRGSVKGTGLDFACDIYIWAPLAGICVALLLSLIITLICYHRQLWTNSRRNRLLQSDYMNMTPRRPGLTRKPYQPYAPARDFAAYRPRAKFSRSAETAANLQDPNQLYNELNLGRREEYDVLEKKRARDPEMGGKQQRRRNPQEGVYNALQKDKMAEAYSEIGTKGERRRGKGHDGLYQGLSTATKDTYDALHMQTLAPR
notes: as for B1
B4: construct 8 (anti-TREM2 CAR comprising a TREM2 scFv) (other)
chain: QVQLVQSGAEVKKPGASVKVSCKASGYTFTGYHMSWVRQAPGQGLEWMGVINPVSGNTVYAQKFQGRVTMTRDTSISTAYMELSRLRSEDTAVYYCARIPSYTYAFDYWGQGTLVTVSSGGGGSGGGGSGGGGSDIQMTQSPSSLSASVGDRVTITCRASQDISNYLAWYQQKPGKAPKLLIYRASSLQSGVPSRFSGSGSGTDFTLTISSLQPEDFATYYCQQHGHSPTTFGQGTKVEIKLRVFSSVVPVLQKVNSTTTKPVLRTPSPVHPTGTSQPQRPEDCRPRGSVKGTGLDFACDIYIWAPLAGICVALLLSLIITLICYHRQLWTNSRRNRLLQSDYMNMTPRRPGLTRKPYQPYAPARDFAAYRPRAKFSRSAETAANLQDPNQLYNELNLGRREEYDVLEKKRARDPEMGGKQQRRRNPQEGVYNALQKDKMAEAYSEIGTKGERRRGKGHDGLYQGLSTATKDTYDALHMQTLAPR
notes: the construct also encodes GFP

The experiment deals with T1, Biotinylated Human TREM2 …. As to the kind of experiment: flow cytometry: CAR-transduced Jurkat NFAT cells stained with Biotinylated Human TREM2 Protein and Streptavidin APC; also sorted with the protein and streptavidin beads. The source says:
Constructs 3, 7, 8 and 10 are all constructs of the present invention, which comprise a CAR comprising a TREM2 scFv. Non-transduced cells (mock) and transduced cells were collected and stained for flow cytometry using Biotinylated Human TREM2 Protein (TR2-H82E7 ACRObiosystems) and Streptavidin APC as a secondary antibody. Cells were sorted using Streptavidin magnetic beads, columns (miltenyi) and Biotinylated Human TREM2 Protein (TR2-H82E7 ACRObiosystems).
On day 4 after transduction, Jurkat NFAT cells were stained for surface expression of the anti-TREM2 CARs using Biotinylated Human TREM2 Protein (TR2-H82E7 ACRObiosystems) and Streptavidin-APC as a secondary antibody. On day 7, CAR expressing cells were selected using Streptavidin magnetic beads (Streptavidin MicroBeads, 130-048-101, Miltenyi), columns (Miltenyi) and Biotinylated Human TREM2 Protein (TR2-H82E7 ACRObiosystems) and then used for subsequent activation assays.
Regarding B1, the binding result is “binds”.
The result for B2 reads “binds”; that for B3, “binds”.
As for B4, the entry is “binds”.
